Source: the domain aggregation screens of Martell et al. (2025)

Assay: soluble fraction after stress (log2 fold change); higher = more stays soluble; pooled small domains, quantitative proteomics
Conditions: stress: 75 degC
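Note: 20 min heating vs room temperature control held 20 min.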

Row | Sequence | soluble fraction (log2)
1 | HMKYSNDFDKVSYSLGLSIASNLISSGVKTLNAEAFNDGLATVFEGRMPEINPDEANKILQNFFEGLQKE | -0.278
2 | HMKYSQAMIAQIIKHFHLPNNTVVTGEDVDAILLRSVDGGDGIYGGDVVSIWKYYKKQNDIQEIVT | -0.764
3 | HMLAEEDRRRAERPGLDGNAVMVHLGIGPGRHVGEALAFLLEVRRSEGDLAVAELKSRIDAWWADR | -2.17
4 | HMLAERKERDKAELKELILDAAKKILLKNGQEGLSIRKIATTVEYSPATIYLYFKDKDEILHELMEMG | 0.123
5 | HMLAHSEFGARLRETRKRLGLSQSELGGDRYSGSYISHLESGRRAASAEVIEFLAGRLGVEVEELGM | -0.406
6 | HMLAIELDDKPGSLLRALEIFAKRNLNIEYMYAFTEKRGDKAVMIFKFSDIETAKKSLLEEGFN | -2.11
7 | HMLAKNDSGLNNHTFNAIRDALLEALADGPAEAKKLTENISFPSDKIITVIRFLADHDDRFSLEDGILSLT | -0.738
8 | HMLAKYEIIKQDIIQMIEEKKFKPGDKIYSEGELKKIYNVSSTTVVRALQDLVLSGYLIRKQGEGTYVRK | -3.2
9 | HMLASDYEEELSVLIKMSHKIAAGDDSLMDDFNDRVTMFESSYPINKATKDLTPVLERVNKFQT | -0.908
10 | HMLDDDAGMIQAILRKAPGHYLPLHDKSDPASIQAQLGISKAQFKRAVGTLMKQGLIRQVKGDGLYLTQ | -0.271
11 | HMLDDESLHFFYKKDGWEYWMKTTTENNYPIQLRKKIGDEKVQEYWNGDKEKKKIGASYFGV | -0.465
12 | HMLDFLVSKYESELLADLLWSLGVVAVEEREATGDLVTLRTSLGDDHSFTRELVQEKFPDVIVSTAL | -1.74
13 | HMLDIVVGSTGYALGEITDHSGTVRVNGDTWTARLVDAAGPVEDGDRVEVYAVEGTTLLVYPS | -0.619
14 | HMLDKEDNANAGKTLLERELSRAHLSDVEHRELAQRLHLASEQELYIKIGSGDLSIIQALNRAKEFKDT | -0.0269
15 | HMLDKRSHAKKVLDAIEAVILGRATNDQLAYTINGRSLQKTPLPDLLRLRSQYQAEYQRELRAERIRKG | -0.697
16 | HMLDLPVKTINGKQYYYYTVKKGDTVYSLITRFGITRSDLVESNPAAADVLKTGDTLYFAVDKFG | -1.19
17 | HMLDLYYDSEDKLLIDMGTGEVIRSFADDKRSLVFDAQAKILFDEDSGDIVYSSYFDKLITDKLASKS | -0.396
18 | HMLDPIQEGKKMLNSRLSGFGITPNTRLMNKLLAAYNISSREEFYGRIGAGIEDLSTLREVLLKGT | -0.973
19 | HMLDQSYYETANEIISRYPLEEKSLIPIIQDIQATYRYLPPDLLDYVAKKIGITETKAYSVASFYENFSF | -0.721
20 | HMLDRNKLNELDAYIESFEDKPSHLIMILHRAQGLFGYLPKELQIYVAEKTGVPAAKVYGVVTFYSFFTMK | -3.42
21 | HMLEDDTVNTAEGIKIGDSFAAVTKAYGTDYVAAGNTYAYSKDKMTLTFVMNNDKVSTISYSLLTS | 0.136
22 | HMLEDYFKEEEYTEVLKIPKEYIKGFQYYLIEDAEFVNALRAKNKTMTLFLAKKLASDYIEIIRREQ | -2.39
23 | HMLEIGRYNTLTVLRKVDFGYYLDGLDYGDILMPAKYAATELEAGDEVDVFIYLDSSEKLIATTETPIAQ | -4.06
24 | HMLEIQENFQNILKRMELSLSPLERRVLALYLSGYERSEIPEKTGIPLKTFDNALHRVRNKMK | -2.36
25 | HMLEKDIGKAITILRKSYQLSISAFSMRTGYSRVHISEVESGKRKATDELISVIRNVFHLDSNWPF | -1.52
26 | HMLELDRTNLLGVFGSKSNPYALIMLSNGEMLKLSIGDQFLGWRVYAIDQTTVHVQNGKNQEILRIP | -1.36

Row | Sequence | soluble fraction (log2)
27 | HMLELLSMEDIQRTRVGDLIATVRQVDRQHALVLDRDPETGKPAVRGIFSLSQISLRLGLNI | -2.17
28 | HMLEPGIAVLKTLMSQYRLGVADLPELGSKSNVSKLLNAVEGKKLTRQHIEALSKRFAVSPALF | -0.148
29 | HMLEPGQKVKSVVVDISGDLIYIDLGGKTEGVVELKEFYDEAGEYHVKPGDEIEVFFVSVQNGLKRFTT | -0.0603
30 | HMLEQISDPEVLSKLADEVLSQQEKMVMDYRKGKTAAFQGLMGQMMKKTKGKGNPAKIQEILAQKL | 0.401
31 | HMLEQLTPRELKVLQALAQGRQNKEIAAQLVISERTVKFHVSAILSKLNVGNRTEAVTVAAQRGLISL | -1.6
32 | HMLEQSYYEKTDEIIELHGAKASSLIPVMQDVQAEYRYLPGELLSYIADKLGIPLAKAYSVATFYENFS | -0.282
33 | HMLERKFGTSLEIKSLSKFLIENNYKKNAKYLNKLIQVLGTRSENRIIKTFFKQFPEIENIFRNQL | -0.612
34 | HMLETADDAKRFLGAIISEKKAENLLRVYPDIIERIVAGKPVDLSLVKGIKQKTFDKLRQKVISHYSMY | -0.0346
35 | HMLETHRRRQIILSLLRESGMLDVDEVAARLVVSPNTIRNDFNALAAEGLLRRIRGGATLAEP | -1.45
36 | HMLFKNASGTVVSRIQSQVDGQINIRTGSGNAPDYAFVAKPDGAVELYHNGTKQFETGSSGVLLP | -0.406
37 | HMLFQQPATMIGKIGVAMSDLRPSGKIKIDDEWYDGQSEGDYILKGQEIIVVQVMNAYLIVRL | 0.0841
38 | HMLFRGNGFNTLYDKQLRITQQGEFKDGRLWDGKYYRYSKAGELVRIEIYEQGRYAGNGVITDEDKA | -1.06
39 | HMLFSDSDLKSLLDKDISYVIEMYKAASKEQKRIISDMVAQKVMEKKYIDANILIQLGELTGINYMDL | -1.33
40 | HMLFSEKLKQAMQDLHLNQIQVVGLTGKSKGSISQYISGKQVPSEATQRDIAISLGLEENYFSKK | 0.701
41 | HMLFYSDLVRLISFAEATLGKNEFETWYMSHHQGMKYTEIAIALGISVRTVEDRIARTKNHFRKI | -0.68
42 | HMLGAGFDSDLTARENIFLNGALLGHSRAVMRGYYDDIVNFAELHDFMDVPVKNFSSGMTSRLAFSIATIG | 0.236
43 | HMLGARIAALRRQAGMNQGELAKKLGISPSTVGMYEQGRREPSAEMLVRLAEAFSVSTDFLLT | -1.1
44 | HMLGERIRRLRKEMGMSVTELARRVKTSPSYISEIEKGEKTPSLNLLVRIASELRTGIDYLTGL | -0.922
45 | HMLGIGANVQKIAQERKISLKELSRRAGIPYTTIYNMVKRDSSRVSPENLQKLADALGVEIGKLYG | -0.24
46 | HMLGSQQAYTDALRLTGLPVDIEVIESDRLPFLIPMRYSLDQHLIEVNVRYPDTRAIRVQQMVEELFHA | -0.631
47 | HMLGVKKFGGEAVIAGNIILRQRGTKWITGSNVGIGKDHTLFAKIEGYVVFERMRGRDGQQQISIYP | 0.0286
48 | HMLGYQALASAFRSKVEAGIWPIGEAIPSEARLSKEYGVAVGTIRQAIAELAEEGILIKRHGKSTMVSSG | -1.49
49 | HMLHEFSGVVVSILADTGPSTLKQLHRSLISSDVKMDEKELMQILDEALSSGSVTSHRKGRYLYYSANK | -1.71
50 | HMLHIKKGDTVIVNAGESKGQQGKVLEVLVGKERAIVEGVNMVSKHTKPNAKNPQGGIVKKEAPIHISNLQ | 0.154
51 | HMLHPLLWAVDEPTPVTVRTRPEYVPDVVRWLMQPESQREHDGVVDLRYTVTHRAAFRSRIYVLGTRVTIP | 0.114
52 | HMLIADADSLRKQIETVLANAPNEVAAYRGGKETLMGWFVGQIMRATGGKADPKLTREILAELLQ | -0.00264

Row | Sequence | soluble fraction (log2)
53 | HMLIADSDALRSQIESILNGNPNEVASFRAGKESLMGWFVGQVMRSTGGKADPKRTRELLQELLTK | -0.0249
54 | HMLIDSEILKKTNKITIFLIYAFFSEYLINKEKKKILIGEYIKLSKDFLTIEEVKYFNHLLDDISK | -0.131
55 | HMLIDSNNYFFYKVKPKEGFYSLQKKLGVNRSEIEKHNPSLINEVLKEGMILKIPKYLLNFDLN | -1.08
56 | HMLILTWNYPYEYPMMMRSFLQEIGISRTFLAHIKSNGELLINGRHEIVLKTLQPGDVLTMVIPPSG | -2.13
57 | HMLINLGPRIRKERRSKGISQSDFSKNLGISASYLNLLENGRRTLTVPLLIKIGNELNLSLKDL | -0.125
58 | HMLISAESVKRRLEMIRHLILLGDYEDVTAQVIKLNPAANEYKLTPIIEELNGGKYQEALEKINSYLSKF | -0.839
59 | HMLISKNLLGFTIKNTSGVTFGTLKDIMWLPSNDVYVIDNNGKEYLIPVISEIVKSINYDKGSITIFP | -0.4
60 | HMLKASEVLPYVFTDKFFIDDLNLKQDQILGFLEYIDSKLPSQKLLQVSQQFQLIDFLINESKNYKNQ | -1.68
61 | HMLKDININVTGLDQISNAKLINNLNLLKMNNLFFLDEKKIKKILNSNNLIEKFFIFKKYPSTLDIKVYKT | 0.177
62 | HMLKHNLLSELSRIEGVGAVKRKALMDKFGTVENIKRASEEELSEVAGIGPTLARTIKEQMNKDE | -0.133
63 | HMLKKRKPMSGVGVIVKGMLTGTVTGTDGSYALKARPNDELSFSFLGYKTQEVFVGSKSTIDITLVDEA | -0.111
64 | HMLKLEEIQPNATVRGILPDALITVVNVKWFGSEALELTYKDTSGRVANQLLFRDDQPRLEIVE | -1.98
65 | HMLKLEPYTINEINSLQELYDLGNVRALETLISIYKDKNQVYDTRFYVLDILSKYDNPLIQEALEESITN | -1.39
66 | HMLKLPVEYLNLKYQLMHATSLDKPNNLMKLDEKLGKIIDVYYDDLPVDEQRVVDILQSKLYSY | -0.489
67 | HMLKLYILTDGKNYVMDDPIHPGRVMYSTSPVNAKKFTFKQARALLNNKSKKLSWIRSFNMVDDSSGEKI | -1.44
68 | HMLKREDEVIVVAGKDKGKRGTITQLVGDDRVIVAGVNMVKRHTKPNPNLGQPGGIVEREASLHISNV | 0.244
69 | HMLKVHPRDQEENRLLLLKGERLYEESTGDTRVMIDMWLRKFEEALNSRSRENIEDARRELKEQLAELDN | -0.185
70 | HMLLAPLRLGAAPDIKAQAPLATILARHNGEMEAKDLWQRFGGEIDAFYLQLKTEVAHGWIVEPEPA | -3.01
71 | HMLLELINLQVKILENEELKIIGKVIDLENEKNNLLVIELLKDQKKVLVPFVKEIVPLIDIKNNFIMINPP | -0.903
72 | HMLLFNVADIVKRAKRVLNFKTDAELAAYLGVSRPTLSNWIARNGIDFPLLLEKLKEIDYNWLLVGKGKPE | -2.74
73 | HMLLGPDALTNRELDVLALLERRLSNKEIGALLYISPRTVKRHTINIYQKLHVNNRRAAVAQAKALGLMPD | -1.9
74 | HMLLKIRPDLDGNEIMKLLNIAAGPNVGKAYEHLLELRLEHGPLGKERAEQELMNWWSARSQ | -0.898
75 | HMLLNSLIDTLAAEKATVVPGTEVFKLYDTYGFPWELTEEIASERGFTIDHEGFEAAMKEQRERAREARV | -0.104
76 | HMLLNTSQLKELYNRYDKKNSSLISIPFSAISDEPLKFYKWYAALFQIELNVKAFADVDSKQIIIYKGTK | -3.37
77 | HMLLRSEDAIELGKSQLEDALAPYKIETLDTGTVQQLLDSLKLNSLESLYQEIGLGNRMSTIIAHRLLGE | -0.216
